The results in this text go back to FireProtDB (doi:10.1016/j.jmb.2004.06.079).

In general, Tm refers to the temperature at which the thermal transition is half complete.

B1: Malate dehydrogenase, P80040 (parent)
chain: MRKKISIIGAGFVGSTTAHWLAAKELGDIVLLDFVEGVPQGKALDLYEASPIEGFDVRVTGTNNYADTANSDVIVVTSGAPRKPGMSREDLIKVNADITRACISQAAPLSPNAVIIMVNNPLDAMTYLAAEVSGFPKERVIGQAGVLDAARYRTFIAMEAGVSVEDVQAMLMGGHGDEMVPLPRFSTISGIPVSEFIAPDRLAQIVERTRKGGGEIVNLLKTGSAYYAPAAATAQMVEAVLKDKKRVMPVAAYLTGQYGLNDIYFGVPVILGAGGVEKILELPLNEEEMALLNASAKAVRATLDTLKSL

Variants of B1 are the subject of this data set. To be noted: Chloroflexus aurantiacus (strain ATCC 29366 / DSM 635 / J-10-fl), Thermal, CD, structure 1GUY, whole UniProt chain shown.
[1] abbreviates: pH 7.5, potassium phosphate 10 mM.
[2] abbreviates: pH 6, potassium phosphate 10 mM.

For E165Q, for the setting “pH 4.4, sodium acetate 10 mM”, the melting temperature (Tm) came out at 85.8 °C and the “change of melting temperature, mutant - wild type (higher = more stable)” value (shortened to “change of melting temperature, mutant”) stood at 5.4 °C. In addition, under setting [1], the midpoint of thermal melting (Tm) came to 91.4 °C and the “change of melting temperature, mutant” value was found to be 23.6 °C.

Consider E165K, for which the Tm by setting is: (pH 4.4, sodium acetate 10 mM) 85 °C; under setting [2], 91.4 °C; under setting [1], 91.7 °C. For the same variant, the “change of melting temperature, mutant” value is, setting by setting: (pH 4.4, sodium acetate 10 mM) 4.6 °C; under setting [2], 12 °C; under setting [1], 23.9 °C.
